How the values were obtained:
MS2 coat protein [1] = assay: apparent KD of MS2 coat protein, switch ON state; designed switch direction (-1 OFF switch, 1 ON switch): -1; higher = weaker reporter binding; conditions: FMN input: 0 or 200 uM; Eterna round: R93 (includes R88 designs)
Method in brief: (§1)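 Illumina sequencing clusters served as templates for on-chip transcription of the designed RNA switches. SNAP-549-labelled MS2 coat protein was then titrated in twofold steps from 0.7 or 1.5 nM to 3 µM, allowing 0.8–1.5 h per step at first and 10–20 min per step later. The buffer held 100 mM Tris-HCl pH 7.5, 80 mM KCl and 4 mM MgCl2, without or with constant ligand. Apparent KD is the median per design of normalised cluster binding-curve fits.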

MS2 coat protein [2] = assay: apparent KD of MS2 coat protein, switch OFF state (with FMN for OFF switches, without FMN for ON switches); designed switch direction (-1 OFF switch, 1 ON switch): -1; higher = weaker reporter binding; conditions: FMN input: 0 or 200 uM; Eterna round: R93 (includes R88 designs)
Method in brief: as §1

| Sequence | apparent KD of MS2 coat protein (MS2 coat protein [1]) [nM] | apparent KD of MS2 coat protein (MS2 coat protein [2]) [nM] |
| --- | --- | --- |
| AAAAAGGCAGGAUAUACAAAACAGGGAAACCUGAAAAGGAAACAUGAGGAUCACCCAUGUAGAAGGGCCAAGAA [Clint Eastwood] | 31 | 30.9 |
| AAAAUACAUGAGGAUCACCCAUGUGAGGAUAUCUUAAAGGGAAUAAAAUAACUCAAAAAGAGAAGGCACAAAAA [Ex 1 May 29] | 35.8 | 44 |
| AACAGUACAGGAUAUACAUGAGGAUCACCCAUGUGAAAAUUAAGUGGGAGACCACAAAGUAGAAGGGUACUGAA [Mat - Exclusion 3 - Eli mod - D60] | 126 | 62.3 |
| GGAAAACAUGAGGAUCACCCAUGUGAGGAUAUCGAUGUCCAAAAAAAAGUGCGGGACUCGAGAAGGCACUUGGA [salish99-ex1-31] | 48.2 | 32.5 |
| AAAAAGUCAGGAUAUACAGAAAAAAAAACGAAAAAAAAUCUGUAGAAGGGACAUGAGGAUCACCCAUGUAAAAA [Ex 4 May 12] | 47.6 | 33.6 |
| AAAAAGUGAGGAUAUGUCAAAAGUCACAAAAGUGACAAAAGACAGAAGGCACAUGAGGAUCACCCAUGUGAGGG [Mod of Eli - Late G + early G segment 4] | 110 | 103 |
| AACAAGUGAGGAUAUCGGAAAAGUAAAUAAGUAAAACAAAACGAGAAGGCACAUGAGGAUCACCCAUGUAAAUA [JR_Exc004_Sub014] | 17 | 17.4 |
| AAGAAGACAGGAUAUACAUGAGGAUCACCCAUGUAAAAGAAAGAAAGGGAAAAGAAAAGUAGAAGGGUCAAGAA [Khepermaatre-setpenptah Ramesses X] | 37.6 | 51.4 |
| AAAAACAGAGGAUAUACAUGAGGAUCACCCAUGUAAAAAUGUAGAAGGCUGAAAAAAAAAAGAAGGAAAAAAAA [Meechl Ex3 R2 m0] | 21.6 | 23.2 |
| AGUGAGUCAGGAUAUUCGUGAAGAAUAAAAGAAAUAACAACGAAGAAGGGACAUGAGGAUCACCCAUGUACACA [May 57] | 33.6 | 25 |
| AAAAAGGUAGGAUAUACGAGGAGAAAUAAUAAAUAAAUAAAACAUGAGGAUCACCCAUGUAGAAGGACCAAAAA [Ex 2 sub 2] | 27.6 | 26.9 |
| CUUAUGUGAGGAUAUGUACAGAAAAAACUGGGUGUAACUGUACAGAAGGCACAUGAGGAUCACCCAUGUAAAAA [EX4 387: S S Pseudoknot 12] | 36.4 | 31 |
| AGAAAACAUGAGGAUCACCCAUGUGAGGAUAUGAAAAAGAAAAGAAAAGAAAGAAGAAUCAGAAGGCACAAGAA [Weneg] | 28.6 | 29.8 |
| AAAAAGUCAGGAUAUAUGCGAAAAAUAAAAAAAAUAAAAACAUAGAAGGGACAUGAGGAUCACCCAUGUUAAAA [Ex 4 May 17] | 44.7 | 29.3 |
| UGCCGUCUAGGAUAUACAUGAGGAUCACCCAUGUGACACACAUAUUUUACAAAACCAUGUAGAAGGAGACGGCA [E3-2.0] | 99.2 | 477 |
| AUAAAACAUGAGGAUCACCCAUGUGAGGAUAUGCGAAACAAAGAAACAAACAAACAAAGCAGAAGGCACAAUAA [Amethyst 7] | 24.2 | 39.2 |
| ACAGCUGAAGGAUAUACUUGGGAAAAAAAAAAAAAAAAAAAACAUGAGGAUCACCCAUGUAGAAGGUCAGCUGA [Brourd - Exclusion 2 - Sub 1] | 82.2 | 43.5 |
| AGGAAACAUGAGGAUCACCCAUGUAAGGAUAUGAACGAAAAUAAAUAAAAAUAAAAGUUCAGAAGGUACAAAAA [66%, Wbt, 6] | 29.8 | 52.7 |
| AAGAAUGCAGGAUAUACAUGAGGAUCACCCAUGUAAAAGAAAGAAAAGGGAAAGAAAAGUAGAAGGGCAAAGAA [Satre-merenamun Tausret] | 29.6 | 30.5 |
| GAAGUACGAGGAUAUACAUAGAUACAGAUACAUGUAGACGUACAUGAGGAUCACCCAUGUAGAAGGCGUACAAG [Mat - Same state - Mayanna Mod - D117] | 137 | 129 |
